Assay results reported in the DeepSol protein solubility set.

test: soluble on expression in E. coli; label from the status in PepcDB or PDB records

Sequence | soluble on expression in E. coli
MGSDKIHHHHHHMFNESDAPQPPKVLSTPLEIAANLRQLQESHDPLIITFHDRSHRFQSYVVHVDRESNTLALDEMIPRDGEKFIENGEHFRVEGFHDGVRIAWECDHALKISEVDGHRCYSGPLPQEVTYHQRRNAFRAALKLSQLVDIILDGAHLKGNGAMRGKLLDISATGCKLRFEGNVEDRLQLGQVYERFKAGNPLGLVDTMVELRHLHYEERINTTFAGVRFHNLSGQAQRKIESFVYQLQREARRFDKDDY | not soluble
MGSDKIHHHHHHMDYRQPDLSVITVNYNGFHDTCEFIDSWAATVFSVSYEMIVIDNGSTANEAALLQKTYPFIQAVRSERNLGFAGGNNLGINLAKGKYLFLLNNDVCMVKDAIPLLIKRLLSSDKIAGVSPLIRDYAEPHAIQFAGYTQLSPITLRNRAIGKGKINKDHYPAQKTPYLHGAAMLLKKTIIDKLSLMPEEYFLYYEELDWCTYINREGYELWYDPACEIWHKDSSSTGKESPLKYYYLSRNRLLYAYRNLFDWKLPVSILYQTMIVCPKNILTALGKGKKAIAKAHWEGTKAFFKLRNKDKQP | not soluble
MGSDKIHHHHHHMINLFLYCRAGYEKDCAAEIQQRAAELNVGGFVKTNRNDGYVIFQCFQVGDADLLAEQIELDSLIFTRQMFAANELLKDLPEGDRVTPIVDALAKVHRAGELRVETPDTNEAKELSTFCRKLTVPLRQALKRSGALLEKENPKRPIIHVCFVGPGTAYVGYSLSHNSSPYFMGIPRLKMASDAPSRSTLKLDEAFIHFIPKSEQEQRLRSGMNSVDLGACPGGWTYQLVRRGMFVAAVDNGPMAQNLMDTGQVRHYQADGFRFEPPKKNIYWLVCDMVEKPSRVAELMEAWAINGWFKEAIFNLKLPMKSRYKEVSTILATMQEVLRENGIDDFHLACKHLYHDRDEVTVHLWLKPSVGFNFG | not soluble
GPGSMTYYRERRKTLTVQGLKDAVQESLAKYLYDNAIFCAERLYALAPTHESLHTVAHCYVTSGDAGTAYRILRAHYPYLLSATPSFATTNSSTSGNGTGVGSNTAADAAARWDCQYLLGVTCGMTQRYMEGESFLEELERQQSSSEVLYWLGVCRRHLRRGYAEEAFAKSAVLDPLNFVAFENHVKMTRTPREEVRCIYTDAAPGVGAEDAVRRSSMSGMGIGGVGGAHRHVKREALRLYLSPFASVTFLQWTYRCKEARALLQHESFPERDSGWAFGALAMAYFHDGDVENSTVEFANMRRVAPWRLADPALVYYSTALWQRKELGTLGSLSQTLINEMPASPITLCVVANNYSLAKESKESLCMLNRAIQVDHDFAYAHTLRGYELLYLDLKSEAVDAFHEAILIDGGHYNAYAGLGELYFRSEDLQKARNYFQQAISINPLPTIMNRYAATYHRRDATRESLNEALRIYESAIRRHPTNLGARHQRAEVLIRLGRFHEAHDELLGMTKECPDEAMLYVTLAKCVHLMGLTGQAVQYYHTAMDLDPRRVGYIKSCLERLAMGKPDVAEANA | not soluble
MGSDKIHHHHHHMTMDKLLTVCGLSLEVARTGQQVVKSVSFDLAPGEIFGIVGESGSGKTLATRALISLLPPTIKVADGSVSYKGRDVLKMKENELRHLRGAEIGVVFQEPMTSLNPSMTIGRQLEEGLILHTKASAQERRSLILDMLKRVGIRDPEGALSSYPHEFSGGMRQRIMLASVMLLKPALLIADEPTTALDAVIQRDVMELMVELTRAEGTAILLISHDLPMVARYTSRIVVMEKGAIVEKGRTEDLLKAPQHPYTKKLLSSLPFRGRPRQIDLTSVPMISARDIIVDYAGRKSLFRKNKPKRALHGVSIDIHEGEVVALVGGSGSGKTTLGRTIAGLVTESEGRIQFQGRPRTENWTDYRLNCQMVFQDPYSSLDPRMTIEALVEEALRPVPGLDGKAKRKRTLETLEEVGLGVDYAGRYPHELSGGQRQRVAIARAIARRPRFLIADEPVSALDVTVRAQVLDLFSDLQKRYGFSCLFISHDLGVVEQVADRVVVMQDGRIIEEGDRDTIFDSPKEAYTRRLLSAIPALDQNEKGGVTLKWRLEN | not soluble
GSPEFMALTQSLKLSNGVMMPVLGFGMWKLQDGNEAETATMWAIKSGYRHIDTAAIYKNEESAGRAIASCGVPREELFVTTKLWNSDQGYESTLSAFEKSIKKLGLEYVDLYLIHWPGKDKFIDTWKAFEKLYADKKVRAIGVSNFHEHHIEELLKHCKVAPMVNQIELHPLLNQKALCEYCKSKNIAVTAWSPLGQGHLVEDARLKAIGGKYGKTAAQVMLRWEIQAGVITIPKSGNEARIKENGNIFDFELTAEDIQVIDGMNAGHRYGPDPEVFMNDF | soluble
MRTKDIYRLELRKIKIDKRMMKRILRLGIPSGIQQSIISLSNVVVQANVNIFGSTVMAGFGAYNKVDGFVVLPMQSFCMAATTFTGQNIGAGKPERIREG | not soluble
